This data set has as its target T1, NgAgo (engineered Natronobacterium gregoryi Argonaute) (Natronobacterium gregoryi) (UniProt L0AJX6).
T1 sequence: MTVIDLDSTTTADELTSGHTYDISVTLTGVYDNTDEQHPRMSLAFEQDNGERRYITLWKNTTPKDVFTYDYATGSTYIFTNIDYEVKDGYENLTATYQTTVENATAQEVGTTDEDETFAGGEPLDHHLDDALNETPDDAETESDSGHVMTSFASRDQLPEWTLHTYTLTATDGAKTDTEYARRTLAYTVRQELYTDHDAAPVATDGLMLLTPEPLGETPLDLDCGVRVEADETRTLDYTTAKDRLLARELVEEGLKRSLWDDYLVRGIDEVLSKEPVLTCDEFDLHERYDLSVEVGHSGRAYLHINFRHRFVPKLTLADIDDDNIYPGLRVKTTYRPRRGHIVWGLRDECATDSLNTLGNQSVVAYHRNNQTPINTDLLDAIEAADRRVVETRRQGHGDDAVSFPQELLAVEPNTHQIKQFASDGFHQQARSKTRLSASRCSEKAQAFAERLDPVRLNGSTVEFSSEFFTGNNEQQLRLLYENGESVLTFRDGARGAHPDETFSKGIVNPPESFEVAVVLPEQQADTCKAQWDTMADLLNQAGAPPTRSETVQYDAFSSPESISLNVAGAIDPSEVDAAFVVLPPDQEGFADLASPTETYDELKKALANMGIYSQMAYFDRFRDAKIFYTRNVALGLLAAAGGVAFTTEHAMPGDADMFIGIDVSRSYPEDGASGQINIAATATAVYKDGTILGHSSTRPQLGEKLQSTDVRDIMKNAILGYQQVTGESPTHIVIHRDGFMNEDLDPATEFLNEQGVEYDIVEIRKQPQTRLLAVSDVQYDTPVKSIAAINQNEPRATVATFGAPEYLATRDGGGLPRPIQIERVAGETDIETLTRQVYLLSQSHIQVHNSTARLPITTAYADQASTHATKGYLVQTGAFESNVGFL
The data set is described as follows: SPR. The settings on record: 5'-phosphate on guide; SPR: 10 mM HEPES, 150 mM NaCl, 3 mM EDTA, pH 7.4, 0.005% Tween-20, temperature not stated; EMSA: 2% agarose, 1x TAE, 100 V.

Experimental findings from paper PMC10908814 are described below.

For the sequence “TAAACCCAAAGAATGTCTGAGGGG / CCCTCCTTTTGTAAACAATGCATTCATCGACCTTCCAGCCGGGGTTGGTTCTGCCCCTCTCTCTGTCCTTCAGAGGAACCAGGGACCTCGGGCACCCCAGAGCCCCTCGGGCCCGCCTCCAGGCGCCCTCCTGGTCTCCGCTCCCCTCTGAGCCCCGTTAAACCCAAAGAATGTCTGAGGGGAGCCACCCTCGGGGCCCAGGCCCCAGAGTCACAC / CCCCTCAGACATTCTTTGGGTTTA [g3 guide / EBV cfDNA SPR amplicon]”, the dissociation constant (Kd) is 5.49 nM.
